{"source": "patent US20240287184A1", "about": "(GUANGDONG FAPON BIOPHARMA, published 2024)", "binders": {"B1": {"name": "anti-PD-1 mouse monoclonal antibody PD-1-112-C2 (antibody, V domains shown)", "VH": "QVQLQQPGAELVKPGASVKLSCKASGYTFTTYYMYWVKQRPGQGLEWIGGINPSNGGTNFNEKFKSKATLTVDKSSSTAYMQLSSLTSEDSAVYYCTRRDSNYDGGFDYWGQGTTLTVSS", "VL": "DIVLTQSPASLAVSLGQRATISCRASKSVSTSGYSYMHWYQQKPGQPPKLLIYLAYHLESGVPARFSGSGSGTDFTLNIHPVEEEDAATYYCQHSWELPITFGSGTKLEIKR", "notes": "Mouse monoclonal antibody from a hybridoma"}}, "key": {"human ICOS-hFc [1]": {"molecular_target": "T1, human ICOS-hFc (human, UniProt Q9Y6W8 21-140)", "T1 construct": "Commercial protein; also called ICOS (ACRO); not shown: human Fc (hFc)", "T1 sequence (looked up)": "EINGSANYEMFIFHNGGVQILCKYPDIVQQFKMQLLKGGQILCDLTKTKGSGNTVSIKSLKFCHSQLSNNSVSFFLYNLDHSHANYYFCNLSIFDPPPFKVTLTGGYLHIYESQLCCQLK", "test": "ELISA, antigen coated at 1 µg/mL, antibody 10 µg/mL", "excerpt": "(§1) The anti-PD-1 mouse monoclonal antibody was allowed to bind with four different member proteins of CD28 family to verify the specificity of the antibody in binding to PD-1. […] A horse radish peroxidase (HRP)-coupled anti-mouse IgG(Sigma) was used as the secondary antibody. After developed with TMB and terminated, it was read for an OD450 value with a microplate reader."}, "human PD-1-hFc": {"molecular_target": "T2, human PD-1-hFc (human, UniProt Q15116 25-167)", "T2 construct": "Commercial protein; also called PD-1 (ACRO); not shown: human Fc (hFc)", "T2 sequence (Q15116 25-167 limits assumed)": "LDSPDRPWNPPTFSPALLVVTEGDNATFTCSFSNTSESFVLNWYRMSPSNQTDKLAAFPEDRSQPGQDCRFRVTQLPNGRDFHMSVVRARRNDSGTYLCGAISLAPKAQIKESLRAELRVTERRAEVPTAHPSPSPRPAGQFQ", "test": "ELISA, antigen coated at 1 µg/mL, antibody 10 µg/mL", "excerpt": "as §1"}, "human CTLA4-hFc [2]": {"molecular_target": "T3, human CTLA4-hFc (human, UniProt P16410 37-162, limits assumed)", "T3 construct": "Commercial protein; also called CTLA-4 (ACRO); not shown: human Fc (hFc)", "T3 sequence (P16410 37-162 limits assumed)": "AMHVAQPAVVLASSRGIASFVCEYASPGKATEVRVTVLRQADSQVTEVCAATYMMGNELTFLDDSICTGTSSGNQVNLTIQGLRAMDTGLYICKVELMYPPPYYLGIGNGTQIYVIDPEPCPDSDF", "test": "ELISA, antigen coated at 1 µg/mL, antibody 10 µg/mL", "excerpt": "as §1"}, "human CD28-hFc [3]": {"molecular_target": "T4, human CD28-hFc (human, UniProt P10747 19-152)", "T4 construct": "Commercial protein; also called CD28 (ACRO); not shown: human Fc (hFc)", "test": "ELISA, antigen coated at 1 µg/mL, antibody 10 µg/mL", "excerpt": "as §1"}, "[4]": {"molecular_target": "T5, recombinant human PD-1 expressed on the surface of CHO cells (CHO-hPD1) (human, UniProt Q15116 25-288)", "T5 construct": "whole, on cells; also called CHO-PD1; hPD1-transfected CHO cells", "T5 sequence (Q15116 25-288)": "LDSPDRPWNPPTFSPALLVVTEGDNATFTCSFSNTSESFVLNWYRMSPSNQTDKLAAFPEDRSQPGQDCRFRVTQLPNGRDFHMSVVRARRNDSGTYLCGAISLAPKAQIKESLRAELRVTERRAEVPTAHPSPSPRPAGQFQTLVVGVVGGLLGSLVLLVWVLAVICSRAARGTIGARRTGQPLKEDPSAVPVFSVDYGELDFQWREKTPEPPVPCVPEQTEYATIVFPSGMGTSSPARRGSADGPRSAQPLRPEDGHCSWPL", "test": "flow cytometry on CHO-hPD1 cells", "procedure": "(§2) In order to evaluate the binding of the anti-PD-1 mouse monoclonal antibody to the CHO-h PD1, 2×10⁵ CHO-hPD1 cells and an anti-PD-1 mouse monoclonal antibody diluted in concentration gradient (with an initial concentration of 10 μg/mL, and diluted in 3-fold gradient) were added into a 96-well plate, and incubated at 4° C. for 30 minutes. The cells were washed once with a buffer (PBS containing 3% BSA) and then added with a PE-labeled anti-mouse IgG (Fc) Ab (Biolegend) fluorescent secondary antibody, incubated at 4° C. for 30 minutes, then washed once with the buffer and subsequently resuspended in PBS. Thereafter, the cell suspension was subjected to flow cytometric analysis by CytoFlex (Beckman flow cytometer), and the quantity of the antibody bound to the cells was measured according to the mean fluorescence intensity (MFI) of the staining. The same method was used for evaluating the binding of the anti-PD-1 mouse monoclonal antibody to the CHO-cyno cells and the CHO-mousePD1 (sometimes abbreviated as “CHO-mPD1” in the application) cells."}, "[5]": {"molecular_target": "T5, recombinant human PD-1 expressed on the …", "test": "flow cytometry, blocking of PD-L1-hFc binding to CHO-hPD1, mode 1 (ligand first)", "procedure": "(§3) The ability of the anti-PD-1 mouse monoclonal antibody to block the binding of the ligand to a PD-1 stably expressed on the surface of transfected CHO cells was analyzed by a flow cytometer.\n(§4) The cells were centrifuged at 300 g for 5 minutes, washed once with the buffer, added with a PE-labeled goat anti-human IgG fluorescent antibody (Biolegend), and incubated at 4° C. for 30 minutes. The cells were centrifuged and washed once, then resuspended in PBS, and subsequently analyzed by a CytoFlex flow cytometer to detect the quantity of the ligand protein bound to the cells, and calculate the IC₅₀ value of the PD-1 antibody in blocking the binding."}, "[6]": {"molecular_target": "T6, monkey PD1 expressed on the surface of CHO cells (CHO-cynoPD1) (monkey)", "T6 construct": "whole, on cells", "test": "flow cytometry on CHO-cynoPD1 cells", "procedure": "as §2"}, "[7]": {"molecular_target": "T5, recombinant human PD-1 expressed on the …", "test": "flow cytometry, blocking of PD-L1-hFc binding to CHO-hPD1, mode 2 (antibody first)", "procedure": "as §3, §4"}, "[8]": {"molecular_target": "T7, mouse PD1 expressed on the surface of CHO cells (CHO-mousePD1) (mouse, UniProt Q02242 25-288)", "T7 construct": "whole, on cells; also called CHO-mPD1", "T7 sequence (looked up)": "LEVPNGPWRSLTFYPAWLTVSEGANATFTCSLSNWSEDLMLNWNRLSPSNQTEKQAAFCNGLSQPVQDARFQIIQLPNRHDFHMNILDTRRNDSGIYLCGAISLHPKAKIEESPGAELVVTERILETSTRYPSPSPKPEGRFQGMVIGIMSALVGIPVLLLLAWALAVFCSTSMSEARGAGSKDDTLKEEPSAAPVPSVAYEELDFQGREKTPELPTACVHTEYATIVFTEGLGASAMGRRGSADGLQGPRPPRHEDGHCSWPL", "test": "flow cytometry on CHO-mousePD1 cells", "procedure": "as §2"}, "[9]": {"molecular_target": "T5, recombinant human PD-1 expressed on the …", "test": "flow cytometry, blocking of PD-L2-hFc binding to CHO-hPD1, mode 2 (antibody first)", "procedure": "as §3, §4"}, "human ICOS-hFc [10]": {"molecular_target": "T1, human ICOS-hFc", "test": "ELISA, antigen coated at 1 µg/mL", "excerpt": "(§5) A horse radish peroxidase (HRP)-coupled anti-human IgG (F) was used as the secondary antibody. After developed with TMB and terminated, it was read for an OD450 value with a microplate reader."}, "human CTLA4-hFc [11]": {"molecular_target": "T3, human CTLA4-hFc", "test": "ELISA, antigen coated at 1 µg/mL", "excerpt": "as §5"}, "human CD28-hFc [12]": {"molecular_target": "T4, human CD28-hFc", "test": "ELISA, antigen coated at 1 µg/mL", "excerpt": "as §5"}, "[13]": {"molecular_target": "T5, recombinant human PD-1 expressed on the …", "test": "flow cytometry, blocking of PD-L2-hFc binding to CHO-hPD1, mode 1 (ligand first)", "procedure": "as §3, §4"}, "[14]": {"molecular_target": "T8, PD-1-his (ACRO) recombinant protein (UniProt Q15116 25-167)", "T8 construct": "Commercial protein; not shown: his tag", "T8 sequence (Q15116 25-167 limits assumed)": "as the sequence (Q15116 25-167 limits assumed) above", "test": "BLI (ForteBio Octet), PD-1-his loaded on sensor, antibody in solution", "procedure": "Finally, analysis was conducted by utilizing a kinetic model."}, "[15]": {"molecular_target": "T9, PD1 naturally expressed by activated human lymphocytes (PHA-activated PBMC) (human, UniProt Q15116 25-288)", "T9 construct": "whole, on cells; Also used as the target for the mixed lymphocyte reaction (human T cells)", "T9 sequence (Q15116 25-288)": "as the sequence (Q15116 25-288) above", "test": "flow cytometry on PHA-activated human PBMC", "procedure": "After being obtained from fresh human peripheral blood by gradient centrifugation of lymphatic separation medium, the PBMCs were adjusted to the density of 1×10⁶ cells/mL and inoculated into T75, and meanwhile added with PHA-L (Sigma) at a final concentration of 1 μg/mL to stimulate the proliferation of lymphocytes. After being allowed to stand in an incubator at 37° C. and 5% CO₂ for 3 days, the cell suspension was taken out and centrifuged. […] The cells were washed once with the buffer, and added with a PE-labeled goat anti-human IgG fluorescent antibody (Biolegend), and incubated at 4° C. for 30 minutes."}}}
{"binder": "B1", "values": [{"measurement": "OD450", "setting": "human ICOS-hFc [1]", "result": 0.062, "unit": "OD450"}, {"measurement": "OD450", "setting": "human PD-1-hFc", "result": 2.12, "unit": "OD450"}, {"measurement": "OD450", "setting": "human CTLA4-hFc [2]", "result": 0.131, "unit": "OD450"}, {"measurement": "OD450", "setting": "human CD28-hFc [3]", "result": 0.0625, "unit": "OD450"}, {"measurement": "EC50", "setting": "[4]", "result": 0.739, "unit": "nM"}, {"measurement": "IC50", "setting": "[5]", "result": 2.57, "unit": "nM"}, {"measurement": "EC50", "setting": "[6]", "result": 0.463, "unit": "nM"}, {"measurement": "IC50", "setting": "[7]", "result": 1.55, "unit": "nM"}, {"measurement": "binding result", "setting": "[8]", "result": "no binding (tested: initial concentration of 10 µg/mL)"}, {"measurement": "IC50", "setting": "[9]", "result": 3.73, "unit": "nM"}, {"measurement": "binding result", "setting": "human ICOS-hFc [10]", "result": "no binding (tested: 10 µg/mL)"}, {"measurement": "binding result", "setting": "human CTLA4-hFc [11]", "result": "no binding (tested: 10 µg/mL)"}, {"measurement": "binding result", "setting": "human CD28-hFc [12]", "result": "no binding (tested: 10 µg/mL)"}, {"measurement": "IC50", "setting": "[13]", "result": 4.61, "unit": "nM"}, {"measurement": "Kd", "setting": "[14]", "result": 0.0435, "unit": "nM"}, {"measurement": "koff", "setting": "[14]", "result": "3.18e-05", "unit": "s⁻¹"}, {"measurement": "kon", "setting": "[14]", "result": 732000, "unit": "M⁻¹ s⁻¹"}, {"measurement": "EC50", "setting": "[15]", "result": 0.109, "unit": "nM"}]}
